Assay: soluble on expression in E. coli; label from the status in PepcDB or PDB records

Row | Sequence | soluble on expression in E. coli
1 | MSLSGKLTYKELIIEVLKQTKKPLNVSEIWQKALEKGLDKKLSSIGQTPTQTIWNRLLTDKINFLKTSIKPTTFWLKERENELLKLDNKNEITNEKQEKNKFHERDLHPLLVKFLYENLDFNLNCKTIYHEQSKKGKGGEDKWNYPDIVGVYFPYDDYEKETITLLENIKQNSYKLFSFELKIALNFSNLKECYFQAVSNSSWANEGYLVVLQEIDSEVLSELRRLNQSFGIGVIKLEKDISNSQILISAKEKELDIQTLNMLINKNPNFKEFIDDINKQIKVGKEAKIQANFDEIKSDEEMEKYLKEKCILEKEGHHHHHH | soluble
2 | GSDALVGRLVKSSWDMKSLDLHSMLVETMSKSDHVLIVGFGRGGQTVGRVLAQEDIPYFALDLDIARVQVARSAGEPVSFGDAKRREVLEAAGLGRAKMVVVTLNNMHETQHVLDNVLSMYPNMPVYVRATNDDYVKTFTDIGAEEAVSDTKETGLVLAGYAMLGNGASYRHVYQTMANIRHSRYAALEGLFVGSDDEAGFGENGETVRHAFPLAAEAYAVGKTVGTLPMAAYGIKLLFVRRRTGRIENPDASFTLEGGDVLVVAGKKEEIISFENWSLQGI | not soluble
3 | MSLTIYLMRHGQTYFNLWHKIQGWTDSPLTEEVIKQAKEIGRYFRENNINFDKGYSSTSERASDTLELATDHQLPYRRLKGLKEEYFGSFEAEDERLNPPVPYEDFFVKYGGESEDQVKMRMHDTMLKIARENADNSNILIVSHAGAIFNFLSTINMSIDQLFKIGFTNASVAKIEFKNDQFKVVEIINKKNNKFEVTQVNEGHHHHHH | soluble
4 | MGHHHHHHSHQGEEELVSQTDVKTFLEALPQESWQNKHAGSNGNRATNGAPSLVSRGMQGASANTLNSETSTKRAAVYRMNRNHRGLCVIVNNHSFTSLKDRQGTHKDAEILSHVFQWLGFTVHIHNNVTKVEMEMVLQKQKCNPAHADGDCFVFCILTHGRFGAVYSSDEALIPIREIMSHFTALQCPRLAEKPKLFFIQACQGEEIQPSVSIEADALNPEQAPTSLQDSIPAEADFLLGLATVPGYVSFRHVEEGSWYIQSLCNHLKKLVPRMLKFLEKTMEIRGRKRTVWGA | not soluble
5 | MKNPQSKADDILQCARTLIIRGGYNSFSYADISQVVGIRNASIHHHFPSKSDLVCKLVSQYRQEAEAGIAELEKNISDPLEQLRAYIGYWEGCIADATHPFCVCALLASEIPVLPETVVLEVRAHFRSLSDWLTAVLERGIAQGRLVLTGTARANAEIFMATVHGAMLSARAHGDAATFGAITRPMLERITA | soluble
6 | ETVHETPLLIFPPWINKFYILDLKPQNSLLKWLVDQGFTVFVVSWVNPDKSYAGIGMDDYIREGYMRAMAEVRSITRQKQINAVGYCIAGTTLTLTLAHLQKAGDPSVRSATFFTTLTDFSDPGEVGVFLNDDFVDGIERQVAVDGILDKTFMSRTFSYLRSNDLIYQPAIKSYMMGEAPPAFDLLYWNGDGTNLPAQMAVEYLRGLCQQDRLAGGTFPVLGSPVGLKDVTLPVCAIACETDHIAPWKSSFNGFRQFGSTDKTFILSQSGHV | not soluble
7 | MGHHHHHHENLYFQSHLYFQSHINEQEREIEKLKRQMAEYGAIIKSLQFRQNSLEDTFIPDLTPKVEPSVNPTGCLLGSNAVHLMRDIKKECDYLGIPDPVPATKPTTQAQDDSQKKAKRSCFGRLFTGPFRRGTSAMKTADEYEKDDRLEELYAQLERDPDP | not soluble
8 | MGGLVSRCEAFSSSAEQKLSQGRNTSMDEKTTQTKPSRRPWFWKRIERTELPNPGSYEDINQEASAVLRPNLFDGFRFDFNYPLSAMFSMGHSIEMGSLQKPPGYAFSANYLSNHLVMLSRVDLSGHVNGRVFINHSPFLTSKIVAETSSQPNESKATWDLDYRGSDFCGQLKFGNMGIVALSYLQSVTPNLSLGGEGFYQGATGFSAITAAGRYVTHDGVATCTIASFGPLVASYCHRVNPRVTLATEFFWDLRSRDSLVTIGYKFDLRQATVTGQIDTNGRVAALLEEKINPGLSFLLSGEIDHSRQEYKFGFGVTIGQ | soluble
9 | MSLQSSEAIDTEPKTISPVPEGRPVLVLDLDETCIYSTPAKPEKQQNFPIRIKRRNVFIQVRPGMQECIRRLSEKYEIFFYTASTKIYANKVIDAIAPFVDNEHRFFVSRDQLKDLTLINRPLGKVLLLDNSACSAQKNNLLLIKTWIGDPNDNAFTNEVMPLLDNLVKESDIPSACRNLVSSRRYPSLYVIRSEGHHHHHH | soluble
10 | MFDTLTHGELLKKTAMEVEADIAGIHKQIEEISERNEWRVLQSYRKHKVSDTHFTPSTGYGYDDIGRDTLESIYADVFGGEAGLVRPQIISGTHAISIALFGVLRPGDELLYITGKPYDTLEEIVGVRGGENAGSLKDFQIGYNAVDLTKDGKIDYDAVAAAINPKTKVIGIQRSKGYANRPSFLISEIKEMIRFVKEINENLIVFVDNCYGEFVEELEPCHVGADLMAGSLIKNPGGGLAKTGGYLVGKAKWIEACSYRMTSPGIGREAGASLYSLQEMYQGFFLAPHVVSQSLKGAVFTARFLEKLGFTSNPKWDAKRTDLIQSVEFSDGEKMIAFCQAIQFASPIDAHVTPYPAYMPGYEDDVIMAAGTFIQGASIELSADGPIRPPYVAYVQGGLTYSHVKNAICSAVDSLMQKQLILEHHHHHH | soluble
11 | MGSDKIHHHHHHMNTSYLIDFLENKQVSTITKTKHSYLTYHGLEEGYTYVLKKGIVKTSIILKNGREFNLSYINSTDIVSLLRDEISAYTASPLNVRIESDEAIFYRIPRKTFWDYVNHDTHLQDYVRDYYRIKLTQNIKSLQWMTMNGKKGAVCAFIYKLIDIFGRRGATGILIDFPITNEEIANFCGISTRNSVNRIIHDLKEQHVIDIKNQKIFIYDENYLREFTI | not soluble
12 | MMKHVFQKGKDTSKPVLLLLHGTGGNELDLLPLAEIVDSEASVLSVRGNVLENGMPRFFRRLAEGIFDEEDLIFRTKELNEFLDEAAKEYKFDRNNIVAIGYSNGANIAASLLFHYENALKGAVLHHPMVPRRGMQLANLAGKSVFIAAGTNDPICSSAESEELKVLLENANANVTMHWENRGHQLTMGEVEKAKEWYDKAF | soluble
13 | SARIILERFLQGHEQTPPSKSVINSMLRDPSQIPDGVLANQVYQCIVNDCCYGPLVDCIKHAIGYEHEVLLRDLLLKKNLSFLDEDQLRAKGYDKTPDFILQVPVAVEGHIIHWIESKASFGDECSHHAYLHGQFWSYWNRFGPGLVIYWYGFIQELDCNRERGILLKASFPTDIVTLCHSTA | soluble
14 | MAGVRQHGWRAIPAVCSEYGADTLPDRYRSDGRCLLFRQQAGISALKQELEVKTPYRAMNHPVIGVVTKADLASMEQISLVKCWLREAGAHNVLVTSAVNNNGVTELFALLHTEEGCR | not soluble
15 | MSLLACCAIYSPVRCAFPYTETERRFTCKRRIFRIILTLCGRENMKIRALLVAMSVATVLTGCQNMDSNGLLSSGAEAFQAYSLSDAQVKTLSDQACQEMDSKATIAPANSEYAKRLTTIANALGNNINGQPVNYKVYMAKDVNAFAMANGCIRVYSGLMDMMTDNEVEAVIGHEMGHVALGHVKKGMQVALGTNAVRVAAASAGGIVGSLSQSQLGNLGEKLVNSQFSQRQEAEADDYSYDLLRQRGISPAGLATSFEKLAKLEEGRQSSMFDDHPASAERAQHIRDRMSADGIKEGGSHHHHHH | soluble
